This experiment has as its target T1, human serum albumin (human, UniProt P02768 25-609).
T1 construct: also called HSA; human albumin
The experiment can be described thus: 125I-human GIP competition binding on hGIPR COS-7 cells with and without 2% HSA; fold change of IC50 taken as HSA binding.

Ends that are not written are not given here. * marks the point of attachment. C16 diacid = O=C(O)CCCCCCCCCCCCCCC(=O)*; Palmitoyl = CCCCCCCCCCCCCCCC(=O)*

T1 sequence (P02768 25-609 limits assumed): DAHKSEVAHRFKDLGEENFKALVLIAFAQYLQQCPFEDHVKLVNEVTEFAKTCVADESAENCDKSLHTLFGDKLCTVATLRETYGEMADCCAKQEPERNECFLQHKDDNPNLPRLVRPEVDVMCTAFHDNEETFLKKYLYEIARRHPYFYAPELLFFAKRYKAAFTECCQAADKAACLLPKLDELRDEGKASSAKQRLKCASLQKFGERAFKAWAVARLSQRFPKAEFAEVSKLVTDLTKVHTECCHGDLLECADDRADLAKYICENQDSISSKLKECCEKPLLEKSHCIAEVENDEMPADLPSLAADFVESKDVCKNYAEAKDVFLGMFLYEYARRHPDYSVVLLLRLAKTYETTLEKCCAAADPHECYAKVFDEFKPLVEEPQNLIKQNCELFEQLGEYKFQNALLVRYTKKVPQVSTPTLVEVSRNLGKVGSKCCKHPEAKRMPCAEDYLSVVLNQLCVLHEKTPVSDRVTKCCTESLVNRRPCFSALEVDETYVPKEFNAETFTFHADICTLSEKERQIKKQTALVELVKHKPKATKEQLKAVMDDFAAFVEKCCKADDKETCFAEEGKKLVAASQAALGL

B1: AT117 [hGIP(3-30)NH2[H18K]-C16/18] (peptide)
peptide: EGTFISDYSIAMDKIK(Palmitoyl)QQDFVNWLLAQK-NH2
modifications: N-terminus assumed
SMILES: CCCCCCCCCCCCCCCC(=O)NCCCC[C@H](NC(=O)[C@@H](NC(=O)[C@H](CCCCN)NC(=O)[C@H](CC(=O)O)NC(=O)[C@H](CCSC)NC(=O)[C@H](C)NC(=O)[C@@H](NC(=O)[C@H](CO)NC(=O)[C@H](Cc1ccc(O)cc1)NC(=O)[C@H](CC(=O)O)NC(=O)[C@H](CO)NC(=O)[C@@H](NC(=O)[C@H](Cc1ccccc1)NC(=O)[C@@H](NC(=O)CNC(=O)[C@@H](N)CCC(=O)O)[C@@H](C)O)[C@@H](C)CC)[C@@H](C)CC)[C@@H](C)CC)C(=O)N[C@@H](CCC(N)=O)C(=O)N[C@@H](CCC(N)=O)C(=O)N[C@@H](CC(=O)O)C(=O)N[C@@H](Cc1ccccc1)C(=O)N[C@H](C(=O)N[C@@H](CC(N)=O)C(=O)N[C@@H](Cc1c[nH]c2ccccc12)C(=O)N[C@@H](CC(C)C)C(=O)N[C@@H](CC(C)C)C(=O)N[C@@H](C)C(=O)N[C@@H](CCC(N)=O)C(=O)N[C@@H](CCCCN)C(N)=O)C(C)C
For B1, the binding result is given as “binds”.

B2: AT171 [hGIP(5-30)NH2[D9K]-C16diacid/9] (peptide)
peptide: TFISK(C16 diacid)YSIAMDKIHQQDFVNWLLAQK-NH2
modifications: N-terminus assumed
SMILES: CC[C@H](C)[C@H](NC(=O)[C@H](CO)NC(=O)[C@H](Cc1ccc(O)cc1)NC(=O)[C@H](CCCCNC(=O)CCCCCCCCCCCCCCC(=O)O)NC(=O)[C@H](CO)NC(=O)[C@@H](NC(=O)[C@H](Cc1ccccc1)NC(=O)[C@@H](N)[C@@H](C)O)[C@@H](C)CC)C(=O)N[C@@H](C)C(=O)N[C@@H](CCSC)C(=O)N[C@@H](CC(=O)O)C(=O)N[C@@H](CCCCN)C(=O)N[C@H](C(=O)N[C@@H](Cc1c[nH]cn1)C(=O)N[C@@H](CCC(N)=O)C(=O)N[C@@H](CCC(N)=O)C(=O)N[C@@H](CC(=O)O)C(=O)N[C@@H](Cc1ccccc1)C(=O)N[C@H](C(=O)N[C@@H](CC(N)=O)C(=O)N[C@@H](Cc1c[nH]c2ccccc12)C(=O)N[C@@H](CC(C)C)C(=O)N[C@@H](CC(C)C)C(=O)N[C@@H](C)C(=O)N[C@@H](CCC(N)=O)C(=O)N[C@@H](CCCCN)C(N)=O)C(C)C)[C@@H](C)CC
As to B2, the binding result is given as “binds”.

B3: AT175 [hGIP(5-30)NH2[A13K]-C16diacid/13] (peptide)
peptide: TFISDYSIK(C16 diacid)MDKIHQQDFVNWLLAQK-NH2
modifications: N-terminus assumed
SMILES: CC[C@H](C)[C@H](NC(=O)[C@H](CCCCN)NC(=O)[C@H](CC(=O)O)NC(=O)[C@H](CCSC)NC(=O)[C@H](CCCCNC(=O)CCCCCCCCCCCCCCC(=O)O)NC(=O)[C@@H](NC(=O)[C@H](CO)NC(=O)[C@H](Cc1ccc(O)cc1)NC(=O)[C@H](CC(=O)O)NC(=O)[C@H](CO)NC(=O)[C@@H](NC(=O)[C@H](Cc1ccccc1)NC(=O)[C@@H](N)[C@@H](C)O)[C@@H](C)CC)[C@@H](C)CC)C(=O)N[C@@H](Cc1c[nH]cn1)C(=O)N[C@@H](CCC(N)=O)C(=O)N[C@@H](CCC(N)=O)C(=O)N[C@@H](CC(=O)O)C(=O)N[C@@H](Cc1ccccc1)C(=O)N[C@H](C(=O)N[C@@H](CC(N)=O)C(=O)N[C@@H](Cc1c[nH]c2ccccc12)C(=O)N[C@@H](CC(C)C)C(=O)N[C@@H](CC(C)C)C(=O)N[C@@H](C)C(=O)N[C@@H](CCC(N)=O)C(=O)N[C@@H](CCCCN)C(N)=O)C(C)C
Consider B3, for which the binding result was “binds”.

B4: AT173 [hGIP(5-30)NH2[S11K]-C16diacid/11] (peptide)
peptide: TFISDYK(C16 diacid)IAMDKIHQQDFVNWLLAQK-NH2
modifications: N-terminus assumed
SMILES: CC[C@H](C)[C@H](NC(=O)[C@H](CCCCNC(=O)CCCCCCCCCCCCCCC(=O)O)NC(=O)[C@H](Cc1ccc(O)cc1)NC(=O)[C@H](CC(=O)O)NC(=O)[C@H](CO)NC(=O)[C@@H](NC(=O)[C@H](Cc1ccccc1)NC(=O)[C@@H](N)[C@@H](C)O)[C@@H](C)CC)C(=O)N[C@@H](C)C(=O)N[C@@H](CCSC)C(=O)N[C@@H](CC(=O)O)C(=O)N[C@@H](CCCCN)C(=O)N[C@H](C(=O)N[C@@H](Cc1c[nH]cn1)C(=O)N[C@@H](CCC(N)=O)C(=O)N[C@@H](CCC(N)=O)C(=O)N[C@@H](CC(=O)O)C(=O)N[C@@H](Cc1ccccc1)C(=O)N[C@H](C(=O)N[C@@H](CC(N)=O)C(=O)N[C@@H](Cc1c[nH]c2ccccc12)C(=O)N[C@@H](CC(C)C)C(=O)N[C@@H](CC(C)C)C(=O)N[C@@H](C)C(=O)N[C@@H](CCC(N)=O)C(=O)N[C@@H](CCCCN)C(N)=O)C(C)C)[C@@H](C)CC
Consider B4, for which the binding result is recorded as “binds”.

B5: AT181 [hGIP(5-30)NH2[D21K]-C16diacid/21] (peptide)
peptide: TFISDYSIAMDKIHQQK(C16 diacid)FVNWLLAQK-NH2
modifications: N-terminus assumed
SMILES: CC[C@H](C)[C@H](NC(=O)[C@H](CO)NC(=O)[C@H](Cc1ccc(O)cc1)NC(=O)[C@H](CC(=O)O)NC(=O)[C@H](CO)NC(=O)[C@@H](NC(=O)[C@H](Cc1ccccc1)NC(=O)[C@@H](N)[C@@H](C)O)[C@@H](C)CC)C(=O)N[C@@H](C)C(=O)N[C@@H](CCSC)C(=O)N[C@@H](CC(=O)O)C(=O)N[C@@H](CCCCN)C(=O)N[C@H](C(=O)N[C@@H](Cc1c[nH]cn1)C(=O)N[C@@H](CCC(N)=O)C(=O)N[C@@H](CCC(N)=O)C(=O)N[C@@H](CCCCNC(=O)CCCCCCCCCCCCCCC(=O)O)C(=O)N[C@@H](Cc1ccccc1)C(=O)N[C@H](C(=O)N[C@@H](CC(N)=O)C(=O)N[C@@H](Cc1c[nH]c2ccccc12)C(=O)N[C@@H](CC(C)C)C(=O)N[C@@H](CC(C)C)C(=O)N[C@@H](C)C(=O)N[C@@H](CCC(N)=O)C(=O)N[C@@H](CCCCN)C(N)=O)C(C)C)[C@@H](C)CC
Take B5: the binding result is “binds”.

The values above are taken from patent US20200087373A1 (UNIVERSITY OF COPENHAGEN, published 2020).
